{"source": "patent US20060199250A1", "about": "“Method for generating a mutant protein which efficiently binds a target molecule” (priority 2005, published 2006)", "key": {"[1]": {"assay": "Mammalian cell transactivation (luciferase) of full-length hERα constructs in HEC-1 cells toward DHB", "format": "cell-based, human", "experimental": "Mammalian cell transactivation profiles for the wild-type hERα and the two best mutants, 4-S and 5-E, were carried out in estrogen receptor-negative human endometrial cancer (HEC-1) cells after cloning the hERα LBD from the chimeric yeast two-hybrid construct into the full-length estrogen receptor construct.\nMammalian Transfection and Luciferase Assay. Methods used for cell culture, transfection, and performance of luciferase assay are known in the art (Muthyala, et al. (2003) J. Med. Chem. 46:1589-1602)."}, "[2]": {"assay": "Yeast two-hybrid ligand dose response assay (growth, OD600) of hERα LBD constructs toward DHB", "format": "cell-based", "details": "in yeast; DHB vs E2", "experimental": "Phenotypic screening of library variants was carried out based on a yeast two-hybrid system employing two constructs, the hERα LBD construct fused to the DNA binding domain of the yeast Gal4 transactivator, and the common mammalian transcriptional coactivator steroid receptor coactivator-1 (SRC-1) fused to the yeast Gal4 transcriptional activation domain. The hERα-SRC-1 interaction, which is elemental in the role of hERα as a transcriptional activator, is strengthened by the binding of agonist ligands to hERα. This system couples the strength of ligand-receptor interaction within host yeast cells to their growth on media lacking histidine and can be applied in either a selection or screening mode (Chen, et al. (2004) supra).\nThe plasmids from promising mutants based on this ligand response assay were isolated and re-transformed into fresh yeast cells, and the ligand response assay was carried out again to eliminate possible false-positives.\nPlasmids, Strains, Reagents and Growth Media. […]\nLigand Dose Response Assay. […] These microtiter plates were incubated at 30° C. for 24 hours, after which cultures were mixed by pipetting, and OD600 readings were taken using a SPECTRAMAX® 340PC plate reader (Molecular Devices, Sunnyvale, Calif.)."}}, "data": [{"molecule": "mutant 5-E: hERα mutant: Ala350Met, Leu346Ile, Met388Gln, Gly521Ser, Tyr526Asp, Phe461Leu, Val560Met (protein, UniProt P03372 1-595, looked up, variant A350M L346I M388Q G521S Y526D F461L V560M) Estrogen receptor: MTMTLHTKASGMALLHQIQGNELEPLNRPQLKIPLERPLGEVYLDSSKPAVYNYPEGAAYEFNAAAAANAQVYGQTGLPYGPGSEAAAFGSNGLGGFPPLNSVSPSPLMLLHPPPQLSPFLQPHGQQVPYYLENEPSGYTVREAGPPAFYRPNSDNRRQGGRERLASTNDKGSMAMESAKETRYCAVCNDYASGYHYGVWSCEGCKAFFKRSIQGHNDYMCPATNQCTIDKNRRKSCQACRLRKCYEVGMMKGGIRKDRRGGRMLKHKRQRDDGEGRGEVGSAGDMRAANLWPSPLMIKRSKKNSLALSLTADQMVSALLDAEPPILYSEYDPTRPFSEASMMGLITNLMDRELVHMINWAKRVPGFVDLTLHDQVHLLECAWLEILQIGLVWRSMEHPGKLLFAPNLLLDRNQGKCVEGMVEIFDMLLATSSRFRMMNLQGEEFVCLKSIILLNSGVYTLLSSTLKSLEEKDHIHRVLDKITDTLIHLMAKAGLTLQQQHQRLAQLLLILSHIRHMSNKSMEHLDSMKCKNVVPLYDLLLEMLDAHRLHAPTSRGGASMEETDQSHLATAGSTSSHSLQKYYITGEAEGFPATV", "values": [{"measurement": "Selectivity", "setting": "[1]; HEC-1 cells, EC50 of E2 divided by EC50 of DHB", "value": "≧2.6 × 10^4"}, {"measurement": "Fold Improvement", "setting": "[1]; HEC-1 cells, selectivity DHB vs E2 relative to wild-type hERα", "value": "≧1.4 × 10^8"}, {"measurement": "selectivity enhancement relative to the fourth round mutant (4-S)", "setting": "[1]; in mammalian cells, DHB vs E2", "value": "no selectivity enhancement"}, {"measurement": "selectivity enhancement relative to the fourth round mutant (4-S)", "setting": "[2]", "value": "no selectivity enhancement"}]}]}
